Changes are numbered by the printed parent chain.
T1: h Y2 (Homo sapiens, UniProt P49146)
T1 construct: expressed in transfected cells; host or cells: COS-7
T1 sequence (P49146 1-381): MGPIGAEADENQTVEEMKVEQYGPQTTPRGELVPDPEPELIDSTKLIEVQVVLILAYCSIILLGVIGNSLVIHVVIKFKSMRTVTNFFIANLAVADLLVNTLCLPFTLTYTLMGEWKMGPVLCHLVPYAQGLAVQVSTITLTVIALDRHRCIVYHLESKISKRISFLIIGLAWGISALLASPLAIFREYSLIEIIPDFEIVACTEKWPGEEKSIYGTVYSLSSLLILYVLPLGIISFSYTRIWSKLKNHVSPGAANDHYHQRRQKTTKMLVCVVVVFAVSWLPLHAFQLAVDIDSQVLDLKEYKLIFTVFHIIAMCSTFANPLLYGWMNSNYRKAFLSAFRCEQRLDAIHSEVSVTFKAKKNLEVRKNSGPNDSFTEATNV

T2: h α2A adr (Homo sapiens, UniProt P08913)
T2 construct: expressed in transfected cells; host or cells: COS-7
T2 sequence (P08913 1-465): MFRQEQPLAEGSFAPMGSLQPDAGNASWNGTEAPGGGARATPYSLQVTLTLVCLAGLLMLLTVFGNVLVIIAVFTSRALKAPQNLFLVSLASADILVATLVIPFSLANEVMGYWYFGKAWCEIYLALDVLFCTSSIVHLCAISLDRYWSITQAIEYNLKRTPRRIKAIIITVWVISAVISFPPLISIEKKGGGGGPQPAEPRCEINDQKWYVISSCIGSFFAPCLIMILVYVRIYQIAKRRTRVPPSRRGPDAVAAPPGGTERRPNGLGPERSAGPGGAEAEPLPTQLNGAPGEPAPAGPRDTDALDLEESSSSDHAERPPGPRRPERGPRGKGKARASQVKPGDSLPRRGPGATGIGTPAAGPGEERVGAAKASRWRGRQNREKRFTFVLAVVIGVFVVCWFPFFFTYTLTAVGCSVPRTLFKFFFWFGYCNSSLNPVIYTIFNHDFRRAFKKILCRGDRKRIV

B1: cGαq/z5: chimeric Gα subunit: C-terminal final 5 amino acids of C. elegans Gαq replaced with those of hGαz (SEQ ID NO: 1) (protein)
chain: MACCLSEEAREQKRINQEIEKQLQRDKRNARRELKLLLLGTGESGKSTFIKQMRIIHGQGYSEEDKRAHIRLVYQNVFMAIQSMIRAMDTLDIKFGNESEELQEKAAVVREVDFESVTSFEEPYVSYIKELWEDSGIQECYDRRREYQLTDSAKYYLSDLRRLAVPDYLPTEQDILRVRVPTTGIIEYPFDLEQIIFRMVDVGGQRSERRKWIHCFENVTSIMFLVALSEYDQVLVECDNENRMEESKALFRTIITYPWFTNSSVILFLNKKDLLEEKILYSHLADYFPEYDGPPRDPIAAREFILKMFVDLNPDADKIIYSHFTCATDTENIRFVFAAVKDTILQHNLKYIGLC
modifications: C. elegans
B2: cGαq/z9: C. elegans Gαq with Gαz portion of the C-terminal tail extended to 9 amino acids (SEQ ID NO: 2) (protein)
chain: B1 chain with H347N
modifications: C. elegans

Assays:
Experiment in all cases: Calcium mobilization (FLIPR, Fluo-3) in transfected COS-7 cells
Format in all cases: cell-based
h Y2 = molecular target: T1, h Y2; conditions: h Y2 + chimera in COS-7; agonist NPY, max 10 μM
How it was run: (§1)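 Transient DEAE-dextran cotransfection, COS-7: receptor + chimeric Gα cDNA (1:1 single; 8:1:1 receptor/Gαq/z/Gαq/s mixture). Fluo-3 loading 4 μM, 1 h, 37 °C, HBSS/HEPES pH 7.4, 0.1% BSA, 2.5 mM probenecid. FLIPR ex 488/em 500–560 nm, 3 min, RT.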

h 5HT6 = h 5HT6 (Homo sapiens, UniProt P50406); conditions: h 5HT6 + chimera in COS-7; agonist 5HT, max 100 μM
How it was run: as §1

h Y4 = molecular target: T3, h Y4 (Homo sapiens, UniProt P50391); conditions: h Y4 + chimera in COS-7; agonist PP, max 10 μM
T3 construct: expressed in transfected cells; host or cells: COS-7
How it was run: as §1

h α2A adr = molecular target: T2, h α2A adr; conditions: h α2A adr + chimera in COS-7; agonist NE, max 100 μM
How it was run: as §1

Sequence of h 5HT6 (P50406 whole entry): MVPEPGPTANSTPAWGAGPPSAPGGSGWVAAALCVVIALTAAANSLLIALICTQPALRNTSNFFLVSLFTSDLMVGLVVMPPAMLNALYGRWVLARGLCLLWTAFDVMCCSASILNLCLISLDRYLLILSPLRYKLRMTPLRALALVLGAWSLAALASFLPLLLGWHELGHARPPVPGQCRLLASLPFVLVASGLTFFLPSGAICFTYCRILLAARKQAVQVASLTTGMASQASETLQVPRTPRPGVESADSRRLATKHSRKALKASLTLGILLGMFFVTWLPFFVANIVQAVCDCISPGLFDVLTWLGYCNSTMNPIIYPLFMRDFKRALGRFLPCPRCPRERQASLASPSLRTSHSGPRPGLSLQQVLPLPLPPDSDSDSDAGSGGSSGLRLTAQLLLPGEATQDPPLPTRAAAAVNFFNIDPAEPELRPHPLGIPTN
T3 sequence (P50391 whole entry): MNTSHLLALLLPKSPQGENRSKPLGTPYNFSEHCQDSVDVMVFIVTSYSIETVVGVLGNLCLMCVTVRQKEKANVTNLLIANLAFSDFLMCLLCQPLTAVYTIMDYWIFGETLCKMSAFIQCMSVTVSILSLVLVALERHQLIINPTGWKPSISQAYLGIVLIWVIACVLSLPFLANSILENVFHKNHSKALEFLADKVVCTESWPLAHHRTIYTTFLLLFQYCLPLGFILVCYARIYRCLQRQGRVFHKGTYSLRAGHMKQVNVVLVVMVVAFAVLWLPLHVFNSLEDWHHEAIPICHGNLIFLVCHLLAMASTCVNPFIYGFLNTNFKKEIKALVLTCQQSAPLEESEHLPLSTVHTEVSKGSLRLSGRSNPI

Molecule | MAXIMAL SIGNAL (FLUORESCENCE UNITS) (h Y2) | MAXIMAL SIGNAL (FLUORESCENCE UNITS) (h 5HT6) | MAXIMAL SIGNAL (FLUORESCENCE UNITS) (h Y4) | MAXIMAL SIGNAL (FLUORESCENCE UNITS) (h α2A adr)
B1 | 7708 fluorescence units | 1289 fluorescence units | 9422 fluorescence units | 7575 fluorescence units
B2 | 5387 fluorescence units | 2287 fluorescence units | 7397 fluorescence units | 3040 fluorescence units
